Assay results as given in the Human Domainome abundance scans (Beltran et al. 2025).

B1: Intersectin-1, residues 1156 to 1213; numbered along this chain, Q15811 (parent)
chain: AVCQVIGMYDYTAQNDDELAFNKGQIINVLNKEDPDWWKGEVNGQVGLFPSNYVKLTT

Variants of: B1
Assay: abundance fitness (aPCA) (normalised: wild type 0, dead -1); higher = more abundant; growth selection in yeast, the domain comes from the species named
Settings: Homo sapiens

Abundance fitness: each site, then its substitutions
V46: C -0.503 | L -0.499 | D -0.668 | T -0.337 | G -0.712 | W -0.892 | Y -0.34 | M -0.396 | R -0.375 | K -0.306 | H -0.562 | I -0.006 | Q -0.242 | A -0.505 | S -0.296 | E -0.412 | F -0.463 | N -0.703
K32: T -0.093 | Q -0.035 | P -0.736 | Y -0.341 | F -0.576 | R 0.066 | N -0.339 | A 0.093 | C -0.147 | L -0.38 | H -0.449 | G -0.527 | D -0.296 | S -0.16 | W -0.109 | M -0.039
N43: F -0.799 | I -0.93 | P -0.736 | C -0.541 | R -0.436 | W -1.06 | V -0.794 | G -0.241 | S -0.294 | T -0.85 | L -0.412 | K -0.411 | A -0.263 | D -0.03 | Y -0.734 | Q -0.36 | H -0.08 | M -0.56 | E -0.189
W37: A -0.585 | F -0.307 | S -0.778 | M 0.004 | K -0.792 | G -0.72 | T -0.276 | I -0.022 | D -0.637 | L -0.339 | C -0.588 | R -0.49 | P -0.947 | H -0.887 | Q -0.223 | Y -0.058 | E -0.737
W38: F -0.859 | H -0.793 | N -0.644 | D -0.674 | R -1.08 | C -0.793 | V -0.906 | A -0.533 | Y -0.791 | I -1.03 | K -0.671 | S -0.763 | M -0.733 | G -0.822 | T -0.892 | P -0.853 | E -0.779 | L -0.737 | Q -0.715
F49: A -0.743
I27: W -0.908 | T -0.859 | Y -0.564 | V -0.297
L30: I 0.043 | E -0.978 | K -0.825 | Q -0.257 | T -0.476 | S -0.758 | P -1.04 | G -0.933 | R -0.712 | M -0.412 | C -0.867 | V -0.081 | A -0.911 | H -0.7 | N -0.505 | Y -0.32 | F -0.123 | D -0.917
G47: Q -0.6 | W -0.802 | F -1.01 | V -0.796 | D -0.833 | R -0.786 | Y -0.908 | P -0.867 | L -0.881 | K -0.582 | T -0.941 | E -0.853 | I -0.846 | C -0.974 | N -0.651 | H -0.943 | A -0.755 | S -0.828
L48: W 0.028 | D -0.761 | I 0.063 | P -0.886 | Y -0.056 | Q -0.479 | S -0.258 | H -0.335 | M -0.111 | K -0.055 | T -0.184 | E -0.784 | R -0.07 | N -0.166 | G -0.544 | V -0.068 | F 0.146
V42: D -0.663 | C 0.091 | N -0.756 | Q -0.617 | P -0.72 | L 0.018 | G -0.62 | H -0.237 | Y 0.042 | W -0.811 | A 0.041 | E -0.949 | T -0.299 | R -0.274 | M -0.093 | I -0.048 | K -0.405
E41: N -0.889 | D -1.11 | P -1 | S -0.299 | K -0.456 | G -0.842 | W -0.642 | H -0.495 | R -0.746 | Q -0.863 | Y -0.887 | A -0.568 | C -0.787 | I -0.936 | V -0.681 | F -1.22
D34: Y -0.94 | I -0.974 | N -0.348 | L -0.673 | Q -0.489 | R -0.116 | H -0.158 | E -0.376 | K -0.176 | V -0.691 | F -0.554 | G -0.409 | W -0.894 | T -0.383 | P -0.543 | A -0.385 | C -0.553 | S -0.221
G44: E -0.911 | P -0.806 | D -0.397 | W -0.832 | T -0.92 | S -0.677 | M -0.88 | Y -0.734 | H -0.658 | L -0.879 | Q -0.613 | A -0.56 | I -0.797 | R -0.83 | C -0.682 | N -0.219 | K -0.981
K39: V -0.448
N31: I -0.559 | Y -0.525 | C 0.287 | V -0.313 | E 0.196 | A 0.037 | K -0.319 | Q -0.099 | R -0.373 | W -0.287 | G -0.076 | L -0.631 | T -0.159 | D 0.223 | S 0.006 | F -1.05 | M -0.275 | H -0.095 | P -0.833
Q45: L -0.28 | I -0.1 | G -0.662 | V 0.008 | T -0.169 | M -0.023 | S -0.198 | E -0.149 | R -0.043 | D 0.075 | P -0.765 | K 0.084 | A 0.016 | N 0.109 | H -0.398 | C -0.03 | W -0.537 | F -0.387 | Y -0.411
G40: D -0.722 | L -0.783 | W -0.981 | M -0.658 | H -0.832 | P -0.591 | K -0.848 | Y -0.73 | F -0.953 | I -0.752 | T -0.56 | S -0.839 | A -0.753 | V -0.891 | E -0.769
V29: W -0.672 | Q -1.01 | R -0.9 | K -0.699 | N -0.721 | C -0.219 | D -0.739 | H -1.03 | T -0.788 | I -0.617 | L -0.323 | G -0.742 | Y -0.504 | E -0.925 | S -0.827
N28: A -0.225 | Y -0.011 | P -0.942 | C -0.632 | K -0.014 | I -0.451 | E -0.156 | M -0.298 | V -0.423 | S 0.186 | Q -0.399 | D -0.284 | T 0.281 | F -0.243 | G -0.732 | R -0.065
E33: P -0.6 | K -0.236 | A -0.211 | T -0.075 | R -0.367 | S -0.101 | D -0.047 | L -0.497 | W -0.987 | N -0.516 | V -0.324 | H -0.373 | I -0.451 | F -0.61 | G -0.241 | Q -0.077
D36: S -0.131 | K 0.071 | A -0.004 | Q -0.218 | E -0.196 | V -0.069 | G -0.279 | F -0.175 | T -0.143 | C -0.117 | M -0.018 | L -0.072 | P -0.53 | R -0.009 | I -0.138 | H -0.08 | N -0.203 | Y 0.01
